Source: paper PMC5883317 (Journal of Molecular and Cellular Cardiology, 2018)
Substitutions are numbered along the chain they refer to. In names and notes the source's numbering stands.

Legend:
[1] = biological target: F-actin (rabbit skeletal actin) (rabbit) (UniProt P68135)
[2] = biological target: RLC-depleted isolated porcine β-cardiac myosin (porcine) (UniProt P79293); experiment: reconstitution of RLC-depleted myosin, SDS-PAGE densitometry
[3] = biological target: T1, wildtype myosin regulatory light chain (WT-RLC), unlabeled recombinant (human, UniProt P10916 1-166); experiment: other fluorescence titration
T1 sequence (looked up): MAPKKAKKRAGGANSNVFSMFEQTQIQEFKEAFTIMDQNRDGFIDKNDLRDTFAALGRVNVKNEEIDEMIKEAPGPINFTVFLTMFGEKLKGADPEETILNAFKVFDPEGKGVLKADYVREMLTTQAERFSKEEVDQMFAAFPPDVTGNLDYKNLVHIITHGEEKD

[4] = biological target: cardiac myosin binding protein-C fragment spanning domains C0 to C2 (C0C2) (UniProt Q14896 1-452); experiment: MST
cardiac myosin binding protein-C fragment spanning domains C0 to C2 (C0C2), sequence (Q14896 1-452): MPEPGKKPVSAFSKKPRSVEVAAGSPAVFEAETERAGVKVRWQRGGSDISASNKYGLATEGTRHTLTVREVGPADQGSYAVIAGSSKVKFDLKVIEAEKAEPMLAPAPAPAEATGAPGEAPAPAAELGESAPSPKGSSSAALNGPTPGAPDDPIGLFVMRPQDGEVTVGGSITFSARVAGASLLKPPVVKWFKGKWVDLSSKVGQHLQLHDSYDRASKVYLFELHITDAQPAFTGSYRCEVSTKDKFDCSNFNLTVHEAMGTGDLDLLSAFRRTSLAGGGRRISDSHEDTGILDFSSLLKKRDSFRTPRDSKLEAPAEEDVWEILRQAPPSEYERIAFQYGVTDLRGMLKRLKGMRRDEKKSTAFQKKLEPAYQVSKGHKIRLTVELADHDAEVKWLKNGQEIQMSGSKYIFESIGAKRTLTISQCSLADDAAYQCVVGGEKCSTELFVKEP

Molecule: porcine β-cardiac myosin fully reconstituted with WT-RLC (from UniProt P79293 1-1935; P10916 1-166) (complex)
- KM for F-actin of the F-actin activated myosin ATPase (Michaelis-Menten fit) [1]: 1.5 µM

Molecule: porcine β-cardiac myosin fully reconstituted with R58Q-RLC (from UniProt P79293 1-1935; P10916 1-166) (complex)
- KM for F-actin of the F-actin activated myosin ATPase (Michaelis-Menten fit) [1]: 2.91 µM

B1: wildtype myosin regulatory light chain (WT-RLC), unlabeled recombinant (natural protein)
chain: T1 sequence (looked up)
- Kd [2]: 4 µM

B2: myosin regulatory light chain with the hypertrophic cardiomyopathy mutation R58Q (R58Q-RLC), unlabeled recombinant (natural protein)
chain: T1 sequence (looked up) with R58Q
- Kd [2]: 4 µM

Molecule: ERRDSLLVIQWNIRAFMGVKNWPWMKLYFKIK [RLC binding site peptide of the human β-cardiac myosin heavy chain (amino acids 805–837)]
- Kd [3]: < 0.5 µM

B3: Alexa 647 labelled WT-RLC (natural protein, human, UniProt P10916 1-166, looked up)
chain: T1 sequence (looked up)
modifications: Alexa 647 (labelled with Alexa 647-NHS; site not stated)
- Kd [4]: 8.6 µM

B4: Alexa 647 labelled R58Q-RLC (natural protein, human, UniProt P10916 1-166, looked up)
chain: T1 sequence (looked up) with R58Q
modifications: Alexa 647 (labelled with Alexa 647-NHS; site not stated)
- Kd [4]: 9.7 µM
